Target: thyroglobulin

Sequence of SNA (natural lectin, not treated with PNGaseF) (Q41358 29-289): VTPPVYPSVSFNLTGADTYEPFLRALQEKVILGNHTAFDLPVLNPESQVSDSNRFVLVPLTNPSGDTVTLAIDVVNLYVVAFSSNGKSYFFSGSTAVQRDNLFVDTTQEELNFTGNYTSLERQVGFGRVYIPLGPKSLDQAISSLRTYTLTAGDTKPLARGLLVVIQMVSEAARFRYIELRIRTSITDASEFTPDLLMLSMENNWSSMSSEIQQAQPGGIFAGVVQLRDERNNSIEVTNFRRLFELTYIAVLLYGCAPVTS
Sequence of SNA (natural lectin, not treated with PNGaseF) (Q41358 309-570): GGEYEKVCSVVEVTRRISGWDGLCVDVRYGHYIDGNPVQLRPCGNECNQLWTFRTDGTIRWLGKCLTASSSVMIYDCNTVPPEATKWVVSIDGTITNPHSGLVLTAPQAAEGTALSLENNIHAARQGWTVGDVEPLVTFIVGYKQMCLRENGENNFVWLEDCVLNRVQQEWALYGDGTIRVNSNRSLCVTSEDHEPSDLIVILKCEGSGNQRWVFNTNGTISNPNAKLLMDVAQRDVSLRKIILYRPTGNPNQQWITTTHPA
Sequence of SNA treated with PNGaseF (sugar chain-removed natural lectin) (Q41358 29-289): as the sequence (Q41358 29-289) above
Sequence of SNA treated with PNGaseF (sugar chain-removed natural lectin) (Q41358 309-570): as the sequence (Q41358 309-570) above

Substance | S/N Ratio
SSA (natural lectin, not treated with PNGaseF) | 1.9
MCA (natural lectin, not treated with PNGaseF) | 3.1
SNA (natural lectin, not treated with PNGaseF) | 1.5
SSA treated with PNGaseF (sugar chain-removed natural lectin) | 8
SNA treated with PNGaseF (sugar chain-removed natural lectin) | 6
MCA treated with PNGaseF (sugar chain-removed natural lectin) | 6.5

From patent publication US20150204870A1
